Results from the supplement of paper PMC10567573.

B1: ZNF75A (parent)
chain: RTHTGEQPYTCSICRRNFSRRSSL
B2: FBF1 (parent)
chain: QLQCSPAELQAELLHSQARLAELE

Variants of: B1
Experiment: protein stability index of a GFP-peptide fusion (GPS, HEK-293T) (PSI 1-6); higher = more stable
Conditions: c terminus: a fixed tail appended
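Also: lentivirally expressed fusions sorted by FACS into six bins by GFP to DsRed ratio, PSI derived from sequencing read proportions per bin multiplied by bin number.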

Protein stability index of substitutions, site by site:
T2: R 3.46 | Y 2.81 | W 2.17 | N 2.52 | C 3.17 | H 3.33 | D 3.02 | L 2.82 | Q 2.38 | V 2.88 | E 2.78 | I 2.63 | M 2.68 | K 2.47 | A 3.58 | F 3.15 | S 2.53 | G 2.77
G5: T 3.25 | F 3.38 | D 3.06 | I 3.82 | M 2.86 | R 3.07 | E 3.45 | Q 2.81 | K 2.74 | A 2.98 | P 2.78 | Y 2.21 | N 2.81 | V 2.76 | W 2.55 | L 2.73 | S 2.61 | H 3.52 | C 4.64
P8: G 3.4 | D 3.4 | E 3.95 | A 2.97 | H 3.19 | C 2.52 | I 2.99 | F 3.09
R1: M 2.33 | K 2.99 | V 2.26 | L 2.28 | T 3.14 | D 3.34 | A 3.23 | E 3.62 | F 2.12 | W 2.67 | Y 2.46 | I 3.06 | N 3.26 | S 3.07 | H 3.93 | C 5.09 | G 3.82 | Q 2.4 | P 3.15
H3: K 3.06 | C 2.85 | D 3.18 | L 2.75 | Q 2.64 | W 2.15 | P 3.17 | V 2.65 | A 2.69 | E 3.1 | G 2.76 | T 2.76 | R 3.47 | S 3.16 | Y 2.73 | F 3.25 | I 3.08 | N 3.82 | M 2.57
E6: A 2.86 | V 1.93 | R 2.58 | L 2.52 | K 2.97 | C 3.96 | G 2.55 | W 2.02 | D 2.49 | P 2.63 | M 2.5 | F 3.33 | N 2.5 | Y 2.44 | T 2.94 | S 2.3 | H 3.12 | Q 2.62 | I 3.05
T4: A 2.8 | F 3.28 | N 3.85 | G 2.91 | D 3.31 | M 2.66 | Y 3.04 | H 3.03 | L 2.96 | W 2.1 | Q 2.33 | C 2.15 | E 3.27 | S 3.14 | K 2.77 | P 2.4 | I 3.36 | V 3.29 | R 3.08
Q7: G 2.45 | I 2.63 | Y 2.36 | R 2.96 | A 3.14 | K 2.59 | F 2.8 | M 2.68 | E 3.43 | T 2.49 | S 2.24 | H 2.63 | P 2.57 | L 2.7 | V 2.41 | W 2.83 | N 2.6 | D 3.42 | C 4.67

Variants of: B2
Experiment: as above
Conditions: c terminus: a fixed tail appended

Protein stability index: each site, then its substitutions
L23: T 4.18 | R 4.14 | S 4.84 | Y 3.26 | W 3.71 | Q 4.98 | P 4.03 | V 3.03
E24: Q 3.29 | P 3.18 | G 3.23 | I 3.06 | N 3.29 | H 3.56 | V 2.81 | L 2.41 | M 2.83 | A 3.75 | F 2.32 | W 2.47 | R 3.16 | Y 2.36 | D 2.45 | T 3.54 | S 2.99 | C 3.22 | K 3.44
